Data from patent US20030176671A1 (SANFORD BURNHAM MEDICAL RESEARCH INSTITUTE, published 2003).
Numbering of substitutions follows the chain as printed. Values belong to the binder of their own block, whether it stands above or below them.

How the values were obtained:
GFP-Bak = target: T1, GFP-Bak (UniProt Q16611 1-211); assay: co-immunoprecipitation from transfected 293T cell lysates, immunoblot
T1 construct: also called pEGFP-Bak; not shown: EGFP from a pEGFP vector
T1 sequence (looked up): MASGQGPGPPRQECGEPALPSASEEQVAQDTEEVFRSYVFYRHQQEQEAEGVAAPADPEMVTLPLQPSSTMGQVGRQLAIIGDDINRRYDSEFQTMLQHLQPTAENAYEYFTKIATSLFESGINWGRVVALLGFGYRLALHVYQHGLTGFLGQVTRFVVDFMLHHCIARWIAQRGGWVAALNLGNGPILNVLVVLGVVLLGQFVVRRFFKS

Bax = target: T2, Bax (UniProt Q07812 1-192, limits assumed); assay: co-immunoprecipitation with anti-Myc beads from HEK293T lysates, anti-Bax immunoblot (FIG. 4A)
T2 construct: also called pcDNA3-Bax
Protocol: 293T cells (5×10₆) cultured with 50 uM […]-Val-Ala-Asp-fluoromethylketone (ZVAD-fmk, Bachem) were co-transfected with 1.5 ug of pcDNA3-Myc-Bcl-B, pcl-Neo-Flag-Bcl-B, pcDNA3-hCBP (Human Calcyclin Binding Protein) (used as a control), or pcDNA3-Flag-BCI-XL, together with 1.5 ug of pEGFP, pEGFP-Bcl-B, pcDNA3-HA-BAG1, pcDNA3-HA-Bax, pcDNA3-Flag-Bcl-XL, pRC-CMV-Bcl-2 or pEGFP-Bak. At 24 hrs post-transfection, cells were collected and resuspended in lysis buffer (142.4 mM KCI, 5 mM MgCl₂, 10 MM HEPES (pH 7.4), 0.5 mM EGTA, 0.2% NP-40) containing 12.5 mM p-glycerophosphate, 2 mM NaF, 1 mM Na₃VO₄, 1 mM DTT, 1 mM PMSF and a protease inhibitor mixture (Boehringer Mannheim). Soluble lysates were incubated with 10 ul anti-Myc (Santa Cruz) or anti-Flag (Sigma) antibody conjugated Sepharose beads overnight at 4° C. Beads were washed four times in 1.5 ml lysis buffer, and boiled in Laemmli gel-loading solution before performing SDS-PAGE/immunoblotting. The following polyclonal or monoclonal antibodies were used: polyclonal rabbit anti-GFP (Roche), monoclonal rat anti-HA (Roche), monoclonal mouse anti-Flag (Sigma), monoclonal mouse anti-Myc (Santa Cruz), rabbit anti-huBcl—2, or rabbit anti-huBcl-XL (Krajewski, et al., Am. J. Pathol. 145, 515-525 (1994); Krajewski et al., Cancer Res. 54, 5501-5507 (1994)).
Binding studies confirmed that binding between Bcl-B and Bax mediates suppression of apoptosis by Bax. In brief, HEK293T cells were transiently transfected with several Myc-tagged constructs (human calcyclin-binding protein, wildtype Bcl-B, L86A, R96Q, FFR(169-171)AAA, Δ118-133) and cell lysates were prepared and immunoprecipitated with anti-Myc antibody conjugated to beads. Immunoprecipitates were subjected to SDS-PAGE/immunoblot analysis using rabbit polyclonal antibodies specific for Bax (FIG. 4A). To confirm expression of proteins, lysates were subject to immunoblot analysis using antibodies specific for Bax and Myc.

T2 sequence (Q07812 whole entry): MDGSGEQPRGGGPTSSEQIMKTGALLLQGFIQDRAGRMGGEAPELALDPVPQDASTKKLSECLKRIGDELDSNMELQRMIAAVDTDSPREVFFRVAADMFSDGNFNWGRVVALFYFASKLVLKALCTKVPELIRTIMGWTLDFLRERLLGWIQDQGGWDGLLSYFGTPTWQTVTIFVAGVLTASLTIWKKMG

binding result (GFP-Bak): no binding
B1: Myc-Bcl-B (other, not shown: small tags and cut ends)
chain: MVDQLRERTTMADPLRERTELLLADYLGYCAREPGTPEPAPSTPEAAVLRSAAARLRQIHRSFFSAYLGYPGNRFELVALMADSVLSDSPGPTWGRVVTLVTFAGTLLERGPLVTARWKKWGFQPRLKEQEGDVARDCQRLVALLSSRLMGQHRAWLQAQGGWDGFCHFFRTPFPLAFWRKQLVQAFLSCLLTTAFIYLWTRLL
notes: Expressed in 293T cells and immunoprecipitated from lysates; also called wildtype Bcl-B; pcDNA3-Myc-Bcl-B

binding result (Bax): no binding
B2: Myc-Bcl-B L86A (other, not shown: small tags and cut ends)
chain: B1 chain with L86A
notes: Myc-tagged Bcl-B point mutant

binding result (Bax): no binding
B3: Myc-Bcl-B R96Q (other, not shown: small tags and cut ends)
chain: B1 chain with R96Q
notes: Myc-tagged Bcl-B point mutant

binding result (Bax): no binding
B4: Myc-Bcl-B deletion 118-133 (other, not shown: small tags and cut ends)
chain: MVDQLRERTTMADPLRERTELLLADYLGYCAREPGTPEPAPSTPEAAVLRSAAARLRQIHRSFFSAYLGYPGNRFELVALMADSVLSDSPGPTWGRVVTLVTFAGTLLERGPLVTARVARDCQRLVALLSSRLMGQHRAWLQAQGGWDGFCHFFRTPFPLAFWRKQLVQAFLSCLLTTAFIYLWTRLL
notes: also called (delta)118-133
